Data as given in US6221608A, “Methods for identifying erythropoietin receptor binding protein” (Ortho Pharmaceutical Corporation, priority 1997, dated 2001).
Where two headings read alike, the source gives them in different places. Bridge positions count the residues as written; N and C are the ends. Square brackets hold non-standard residues; d marks the D form. Ends that are not written are not given here. Peptide text beside a SMILES is read from it. Tyr(3,5-Br2) = N[C@@H](Cc1cc(Br)c(O)c(Br)c1)C(=O)O

What was measured:
EBP-Ig [1] = biological target: T1, EBP-Ig (Homo sapiens, UniProt P19235); assay: EBP-Ig Flash Plate EPO radioligand binding assay; settings: for IC50: read-out: EBP-Ig Binding IC 50; for competition in EBP-Ig binding assay: result in words
T1 construct: one encoding amino acids 1-225 of the extracellular domain of the mature hEPOR; made in house
T1 sequence (P19235 with tags, fused parts or gaps limits assumed): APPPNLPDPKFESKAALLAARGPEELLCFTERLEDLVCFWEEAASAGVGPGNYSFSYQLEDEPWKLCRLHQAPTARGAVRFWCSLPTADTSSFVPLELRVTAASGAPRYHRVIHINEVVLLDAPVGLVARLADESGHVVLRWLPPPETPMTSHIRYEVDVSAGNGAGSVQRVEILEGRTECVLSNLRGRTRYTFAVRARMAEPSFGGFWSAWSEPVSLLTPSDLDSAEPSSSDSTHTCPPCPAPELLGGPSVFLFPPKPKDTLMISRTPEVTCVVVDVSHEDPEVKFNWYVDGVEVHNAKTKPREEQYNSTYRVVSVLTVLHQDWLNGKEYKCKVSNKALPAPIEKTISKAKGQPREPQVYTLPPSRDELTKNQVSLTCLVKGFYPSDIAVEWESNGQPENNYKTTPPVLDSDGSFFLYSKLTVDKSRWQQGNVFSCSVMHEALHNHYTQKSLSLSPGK
Source text: The interaction of biotin and strepavidin is frequently employed to capture and effectively immobilize reagents useful in assay protocols and has been employed here as a simple method to capture and immobilize EBP-Ig. EBP-Ig is initially randomly modified with an amine reactive derivative of biotin to produce biotinylated-EBP-Ig. Use of strepavidin coated plates allows the capture of the biotinylated EBP-Ig on the surface of a scintillant impregnated coated well (Flash plates, NEN-DuPont). […] The amount of light produced was quantified to estimate the amount of ligand binding. The specific assay format was suitable for the multi-well plate capacity of a Packard TopCount Microplate Scintillation counter.
Biotinylated EBP-Ig (3S mutant) was prepared as follows. EBP-Ig (3 ml, OD280 2.9) was exchanged into 50 mM sodium bicarbonate, pH 8.5 using a Centriprep 10 ultrafiltration device. […] 10 μl of a 4 mg/ml solution of NHS-LC-Biotin (Pierce) was added and the reaction mixture placed on ice in the dark for two hours. Unreacted biotin was removed by exchange of the reaction buffer into PBS in a Centriprep 10 device and the protein reagent aliquoted and stored at […].
All wells were adjusted to a final DMSO concentration of 5%. […] After all additions were made, the plate was covered with an adhesive top seal and placed in the dark at room temperature overnight. The next day all liquid was aspirated from the wells to limit analyte dependent quench of the signal, and the plates were counted on a Packard TOPCOUNT Microplate Scintillation Counter. […] Corrected total binding (CTB) was calculated as: TB-NSB=CTB. The concentration of test peptide which reduced CTB to 50% was reported as the IC50.

EBP [2] = biological target: T2, EBP (Homo sapiens, UniProt P19235); assay: EBP bead competitive binding assay vs [125I]EPO; settings: for competition in EBP-bead binding assay: result in words
T2 construct: one encoding amino acids 1-225 of the extracellular domain of the mature hEPOR; made in house; host or cells: E. coli BL21(DE3)pLysS (plasmid pSAM3)
T2 sequence (P19235 25-249): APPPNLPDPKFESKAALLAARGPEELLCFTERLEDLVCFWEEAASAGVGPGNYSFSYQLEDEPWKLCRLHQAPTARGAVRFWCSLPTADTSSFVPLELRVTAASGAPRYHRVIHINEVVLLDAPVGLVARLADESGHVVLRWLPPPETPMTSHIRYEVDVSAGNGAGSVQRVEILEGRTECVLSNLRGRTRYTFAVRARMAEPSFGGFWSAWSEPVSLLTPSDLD
Source text: EBP as produced by the above method contains one free sulfhydryl group which can be modified without affecting the solution phase binding of ligand. In order to immobilize the EBP for equilibrium binding analysis this observation was extended for the covalent attachment of EBP to agarose beads. The iodoacetyl activation chemistry of Sulfolink beads (Pierce Chemical Co, Rockford, Ill.) is specific for free thiols and assures that the linkage is not easily reversible. EBP-Sulfolink beads were made as follows: Sulfolink gel suspension (10 ml) was mixed with coupling buffer (40 ml: 50 mM TRIS, pH 8.3, 5 mM EDTA) and the gel was allowed to settle. The supernatant was removed and the EBP (0.3-1 mg/ml in coupling buffer) to be bound was added directly to the washed beads. The mixture was rocked gently for 30 minutes at room temperature, and the beads were allowed to settle for 1 hour at room temperature. The supernatant was removed and saved, and the beads were washed twice with 20 ml of coupling buffer. The washes were retained as well. The beads were then treated with 20 ml of 0.05 M cysteine for 30 minutes at room temperature to block unbound sites. Finally, the beads were washed with 50 ml of 1 M NaCl, then with 30 ml of PBS, and resuspended in 20 ml of PBS and stored at 4° C. The amount of EBP which was covalently bound to the beads was determined by comparing the OD280 of the original EBP solution to the total OD280 recovered in the reaction supernatant and the two 20 ml washes. Typically, 40-60% of the applied EBP remains associated with the beads.
Competitive binding assays of peptides were performed as described herein. Individual peptides were dissolved in DMSO to prepare a stock solution of 1 mM. […] Initial assay points with no added peptide were included in each assay to determine total binding. Binding mixtures were incubated overnight at room temperature with gentle rocking. The beads were then collected using Micro-columns (Isolab, Inc.) and washed with 3 mL of wash buffer (PBS/5% BSA). The columns containing the washed beads were placed in 12×75 mm glass tubes and bound radioactivity levels determined in a gamma counter.

FDC-P1/hER cells = assay: EPO dependent cell proliferation assay; assay type: cell-based, human EPO receptor; settings: for FDCP-P1-hER ED50 / EC50: amount of peptide for one half of maximal activity of recombinant EPO, 42 h + 6 h [3H]thymidine; for EPO mimetic activity / proliferative capacity: cell proliferation, result in words; for EC50: 2880 min, read-out: FDCP-P1-hER ED50
Experimental: At 24 hours, the cells were counted, resuspended at 800,000 cells/ml and dispensed at 40,000 cells/well. Stock solutions of the respective peptides (10 mM in DMSO) were prepared and dispensed in triplicate to final concentrations of 1×10^-10 M through 1×10^-5 M and adjusted to a final volume of 0.2 ml. […] A standard EPO dose response curve was generated with each assay series. After a 42 hours incubation at 37° C. (about 2 cell doublings) 1 μCi/well of [^3 H] thymidine was added and the incubation continued for 6 hours at which time the cells were harvested and counted to assess [^3 H] thymidine incorporation as a measure of cell proliferation.

EBP-Ig [3] = biological target: T1, EBP-Ig; assay: Fluorescence polarization competitive binding assay with fluorescein-RWJ 61718; settings: for competition in FP/EBP-Ig assay: fluorescein-RWJ 61718 as labelled ligand, result in words; for IC50: read-out: FP/EBP-Ig IC50
Experimental: Fluorescence polarization (FP) is a useful technique capable of providing information on changes in molecular volume which occur upon the association or dissociation of two molecules. […] Conversely, if a non-fluorescent competitor molecule is added to this complex then a decrease in the fluorescence polarization value can be anticipated [Checovich, W. J., Bolger, R. E. & Burke, T. Fluorescence polarization-a new tool for cell and molecular biology, Nature 375, 254-256 (1995)]. RWJ 61718 was labeled with a fluorescein reporter group by treating 10 mg of peptide solubilized in 3 ml of PBS with 17.9 mg of fluorescein isothiocyanate dissolved in 1 ml DMSO (added in 100 μl aliquots). RWJ 61718 contained a single amine (N-terminus) and 1:1 label incorporation was expected. This mixture was placed on ice and the solution cleared by the addition of 1.0 ml of DMSO. Following a 34 hour incubation at 4° C., fluorescein labeled RWJ 61718 was isolated by reverse phase HPLC. The entire reaction mixture was diluted 1:2 with 0.1% trifluoroacetic acid (TFA; mobile phase A), pumped onto a C-18 reversed phase preparative column (Vydac #218tp54) at 8 ml/min and eluted with a 90 minute linear gradient of 0-100% mobile phase B (acetonitrile containing 0.7% TFA). Fractions containing fluorescent products (excitation wavelength 488 nm, emission wavelength 530 nm) at 530 nm were collected and lyophilized. A highly fluorescent peak eluting at near 60 minutes (ca 60% mobile phase B) was determined to be the desired product by monitoring FP changes in the presence of EBP-Ig.
A competitive FP assay using fluorescein labeled RWJ 61718 as the receptor ligand was established as follows using a Fluorescence Polarization Microtiter System (Jolley Consulting). Test peptides at variable concentrations and EBP-Ig (3S mutant, 0.025 mg/ml) were incubated for 1 hour at room temperature in 90 μl PBS and dispensed into a Dynatech Microfluor plate 96 well plate. Fluorescein-RWJ 61718 was added to each well (10 μl in 0.1% TFA) to a final concentration of 2.5 μM followed by an additional 1 hr incubation at room temperate in the dark. Values for milliPolarization (mP) were obtained at an instrument voltage setting of 8.0. Baseline peptide values were determined from wells which contained only labeled peptide and PBS. Total mP readings were determined in test wells which contained labeled peptide and EBP-Ig only. Peptide concentration dependent competitive reduction in mP values were determined and an IC50 value calculated.

EBP [4] = biological target: T2, EBP; assay: DPDPB crosslinking: dimerization of EBP by EPO mimetic peptides (SDS-PAGE); assay type: biochemical; settings: 22 μM EBP, 1.1 mM DPDPB, 400 μM peptide, visual detection of dimer product
Experimental: Peptide-mediated receptor dimerization was stabilized for study using the non-water soluble homobifunctional sulfhydryl reactive cross linking reagent DPDPB (1,4-di-[2'-pyridyldithio)propionamido]butane, Pierce Chemical Co., Rockford, Ill.). EBP (22 μM) was incubated in the presence or absence of DPDPB (1.1 mM), 400 μM peptide ligand, 75 μl of PBS, pH 7.5 with all reactions and controls containing a final concentration of 4.4% DMSO and 0.007% TFA. These samples were incubated for 4 hours at room temperature and stored at 4° C. for 12 hours before analysis under reducing and non-reducing conditions by SDS-PAGE (10-20% gradient gels, Integrated Separations Systems, Natick, Mass.).

[5] = EBP-Ig (3S mutant) 0.025 mg/ml, fluorescein-RWJ 61718 2.5 μM
[6] = 0.5 nM [125I]EPO, 1 μg/ml biotinylated EBP-Ig (3S mutant), 5% DMSO, overnight
[7] = 0.5 nM [125I]EPO, 2.5% DMSO, overnight, room temperature

Compound | IC50 (EBP-Ig [1]) | IC50 (EBP [2]) | FDCP-P1-hER ED50 (FDC-P1/hER cells) | EPO mimetic activity / proliferative capacity (FDC-P1/hER cells) | FP/EBP-Ig IC50 (EBP-Ig [3]; [5]) | competition in FP/EBP-Ig assay (EBP-Ig [3]) | DPDPB cross-linking (EBP [4]) | DPDPB cross-linking (EBP [4]; listed as 61177) | EC50 (FDC-P1/hER cells) | IC50 (EBP-Ig [1]; [6]) | IC50 (EBP-Ig [3]; [5]) | IC50 (EBP [2]; [7]) | competition in EBP-Ig binding assay (EBP-Ig [1]) | competition in EBP-bead binding assay (EBP [2])
CC(C)C[C@@H]1NC(=O)[C@@H]2CCCN2C(=O)CNC(=O)[C@H](Cc2ccccc2)NC(=O)[C@H](Cc2c[nH]cn2)NC(=O)[C@@H](NC(=O)[C@@H](N)CO)CSSC[C@@H](C(=O)N[C@@H](CCCCN)C(N)=O)NC(=O)[C@H](C(C)C)NC(=O)[C@H](Cc2c[nH]c3ccccc23)NC(=O)[C@H]([C@@H](C)O)NC1=O [RWJ 61177] (H-SCHFGPLTWVCK-NH2; disulfide 2-11) | 500 µM | 90 µM |  |  |  |  |  |  |  |  |  |  |  | 
CC(C)C[C@@H]1NC(=O)[C@@H]2CCCN2C(=O)CNC(=O)[C@H](Cc2ccccc2)NC(=O)[C@H](Cc2cnc[nH]2)NC(=O)[C@@H](NC(=O)[C@@H](N)CO)CSSC[C@@H](C(=O)N[C@@H](CCCCN)C(N)=O)NC(=O)[C@H](C(C)C)NC(=O)[C@H](Cc2c[nH]c3ccccc23)NC(=O)[C@H]([C@@H](C)O)NC1=O [RWJ 61177] (H-SCHFGPLTWVCK-NH2; disulfide 2-11) |  |  | Inactive | without proliferative capacity | Inactive | inactive | deficient in crosslinking ability | negative |  |  |  |  |  | 
GGLYACHMGPMTWVCQPLRG (GGKYACHMGPMTWVCQPKRG) [RWJ 61718] |  |  |  | with proliferative capacity |  |  | positive |  | 100 nM | 0.1 µM | 350 nM | 3 µM |  | 
GGTXSCHFGPLTWVCKPQGG (GGT[Tyr(3,5-Br2)]SCHFGPLTWVCKPQGG-NH2; disulfide 6-15 (inferred)) [RWJ 62021, X = 3,5-dibromo-tyr] |  |  | Inactive | without proliferative potential |  | very efficient competitors | some crosslinking potential |  |  | 400 µM | 5000 nM | 150 µM | very poorly | very poorly
GGTYSCHFGPLTWVCKPQ [RWJ 61596] |  |  |  |  |  |  |  |  | 80 nM |  |  | 8 µM |  | 
GGTYSCHFGPLTWVCKPQGG [RWJ 61233] |  |  |  | functions as an EPO mimetic |  | positive | positive |  | 100 nM | 1 µM | 500 nM | 5 µM | competes at similar levels in both the EBP-bead and EBP-Ig binding assays | competes at similar levels in both the EBP-bead and EBP-Ig binding assays
YSCHFGPLTWVCK (YSCHFGPLYWVCK) [RWJ 61279] |  |  |  | with proliferative capacity |  |  | positive |  | 8000 nM |  |  | 70 µM |  | 
